The target in assay [1] is Grb2 (EST clone IMAGE 4398016), in vitro translated, biotin-labelled (UniProt P62993). Kind of assay: competition: immobilized Grb2, +EGFR, un-phosphorylated peptide in solution; bound EGFR detected by its kinase activity on pEY.
Assay [2] concerns the target T1, EGFR-pY1068 phosphopeptide, LPVPE(p)….
T1 sequence (peptide, phosphotyrosine at (p)Y (residue 6 of the printed peptide; EGFR Tyr1068)): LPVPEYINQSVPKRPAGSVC
Put plainly: ECL 7-spot plate screen, peptide-BSA spot, biotinylated TnT protein, Ru-streptavidin; signal normalized in two steps.

Assay [3] deals with BSA (control coating) (UniProt P02769). Kind of assay: ECL plate binding assay: BSA control on electrode, biotinylated TnT protein, Sulfo-TAG streptavidin.
Sequence of BSA (control coating) (P02769 25-607 limits assumed): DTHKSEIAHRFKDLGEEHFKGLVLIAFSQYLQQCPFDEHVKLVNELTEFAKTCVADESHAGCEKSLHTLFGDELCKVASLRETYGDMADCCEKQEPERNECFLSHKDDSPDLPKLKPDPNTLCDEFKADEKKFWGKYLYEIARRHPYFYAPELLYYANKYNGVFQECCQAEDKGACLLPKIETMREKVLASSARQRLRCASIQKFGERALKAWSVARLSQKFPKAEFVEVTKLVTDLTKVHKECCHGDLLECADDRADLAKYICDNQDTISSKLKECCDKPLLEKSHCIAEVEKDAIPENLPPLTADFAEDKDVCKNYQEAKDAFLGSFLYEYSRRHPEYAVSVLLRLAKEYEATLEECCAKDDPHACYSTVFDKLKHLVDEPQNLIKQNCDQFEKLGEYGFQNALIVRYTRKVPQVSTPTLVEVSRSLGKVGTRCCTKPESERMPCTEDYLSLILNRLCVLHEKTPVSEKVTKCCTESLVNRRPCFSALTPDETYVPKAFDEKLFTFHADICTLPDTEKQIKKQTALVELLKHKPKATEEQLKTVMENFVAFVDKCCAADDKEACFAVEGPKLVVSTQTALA
The target of assay [4] is Pool A of peptide:BSA conjugates (EGFR-pTyr1148, IkBa-24ppC, Myc-p58Tp62S). Kind of assay: ECL 4-spot binding assay with pooled peptide-BSA conjugates, biotinylated TnT protein, Sulfo-TAG streptavidin.
For assay [5], the target named is Pool B of peptide:BSA conjugates (EGFR-pTyr992, EGFR-pTyr1148, Smad3C). The description is as above.
The target in assay [6] is Pool D of peptide:BSA conjugates (EGFR-pTyr992, EGFR-pTyr1068, Myc-p58Tp62S). The assay is described as above.
Assay [7] deals with Pool C of peptide:BSA conjugates (EGFR-pTyr1068, IkBa-24ppC, Smad3C). The description is as above.

The values that follow come from patent US20030207290A1.

Where no end group is shown, it is not given here.

Sequence of Grb2 (EST clone IMAGE 4398016), in vitro translated, biotin-labelled (P62993 whole entry): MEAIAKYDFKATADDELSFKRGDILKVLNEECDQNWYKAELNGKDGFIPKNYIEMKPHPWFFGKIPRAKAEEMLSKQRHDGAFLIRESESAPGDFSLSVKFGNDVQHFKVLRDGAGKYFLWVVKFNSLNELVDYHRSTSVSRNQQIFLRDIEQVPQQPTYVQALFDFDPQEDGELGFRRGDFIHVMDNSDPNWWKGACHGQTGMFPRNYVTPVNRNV

For the molecule LPVPEYINQSVPKRPAGSVC (not fully specified) [un-phosphorylated EGFR 1063-1081 peptide (Peptide, SEQ ID No. 8)], the ECL signal of EGFR bound to Grb2 in presence of the peptide in assay [1] turned out to be 34100 ECL signal.

B1: BMX non-receptor tyrosine kinase (EST clone IMAGE 3919253), in vitro translated, biotin-labelled (enzyme, UniProt P51813 1-675, looked up)
chain: MDTKSILEELLLKRSQQKKKMSPNNYKERLFVLTKTNLSYYEYDKMKRGSRKGSIEIKKIRCVEKVNLEEQTPVERQYPFQIVYKDGLLYVYASNEESRSQWLKALQKEIRGNPHLLVKYHSGFFVDGKFLCCQQSCKAAPGCTLWEAYANLHTAVNEEKHRVPTFPDRVLKIPRAVPVLKMDAPSSSTTLAQYDNESKKNYGSQPPSSSTSLAQYDSNSKKIYGSQPNFNMQYIPREDFPDWWQVRKLKSSSSSEDVASSNQKERNVNHTTSKISWEFPESSSSEEEENLDDYDWFAGNISRSQSEQLLRQKGKEGAFMVRNSSQVGMYTVSLFSKAVNDKKGTVKHYHVHTNAENKLYLAENYCFDSIPKLIHYHQHNSAGMITRLRHPVSTKANKVPDSVSLGNGIWELKREEITLLKELGSGQFGVVQLGKWKGQYDVAVKMIKEGSMSEDEFFQEAQTMMKLSHPKLVKFYGVCSKEYPIYIVTEYISNGCLLNYLRSHGKGLEPSQLLEMCYDVCEGMAFLESHQFIHRDLAARNCLVDRDLCVKVSDFGMTRYVLDDQYVSSVGTKFPVKWSAPEVFHYFKYSSKSDVWAFGILMWEVFSLGKQPYDLYDNSQVVLKVSQGHRLYRPHLASDTIYQIMYSCWHELPEKRPTFQQLLSSIEPLREKDKH
modifications: biotin on some lysine residues (incorporated at random from biotin-Lys-tRNA)
In assay [2], B1 came in with a normalized ECL signal of 3.

B2: Phospholipase C gamma 1 (PLCγ) (EST clone IMAGE 4419252), in vitro translated, biotin-labelled (enzyme, UniProt P19174 1-1290, looked up)
chain: MAGAASPCANGCGPGAPSDAEVLHLCRSLEVGTVMTLFYSKKSQRPERKTFQVKLETRQITWSRGADKIEGAIDIREIKEIRPGKTSRDFDRYQEDPAFRPDQSHCFVILYGMEFRLKTLSLQATSEDEVNMWIKGLTWLMEDTLQAPTPLQIERWLRKQFYSVDRNREDRISAKDLKNMLSQVNYRVPNMRFLRERLTDLEQRSGDITYGQFAQLYRSLMYSAQKTMDLPFLEASTLRAGERPELCRVSLPEFQQFLLDYQGELWAVDRLQVQEFMLSFLRDPLREIEEPYFFLDEFVTFLFSKENSVWNSQLDAVCPDTMNNPLSHYWISSSHNTYLTGDQFSSESSLEAYARCLRMGCRCIELDCWDGPDGMPVIYHGHTLTTKIKFSDVLHTIKEHAFVASEYPVILSIEDHCSIAQQRNMAQYFKKVLGDTLLTKPVEISADGLPSPNQLKRKILIKHKKLAEGSAYEEVPTSMMYSENDISNSIKNGILYLEDPVNHEWYPHYFVLTSSKIYYSEETSSDQGNEDEEEPKEVSSSTELHSNEKWFHGKLGAGRDGRHIAERLLTEYCIETGAPDGSFLVRESETFVGDYTLSFWRNGKVQHCRIHSRQDAGTPKFFLTDNLVFDSLYDLITHYQQVPLRCNEFEMRLSEPVPQTNAHESKEWYHASLTRAQAEHMLMRVPRDGAFLVRKRNEPNSYAISFRAEGKIKHCRVQQEGQTVMLGNSEFDSLVDLISYYEKHPLYRKMKLRYPINEEALEKIGTAEPDYGALYEGRNPGFYVEANPMPTFKCAVKALFDYKAQREDELTFIKSAIIQNVEKQEGGWWRGDYGGKKQLWFPSNYVEEMVNPVALEPEREHLDENSPLGDLLRGVLDVPACQIAIRPEGKNNRLFVFSISMASVAHWSLDVAADSQEELQDWVKKIREVAQTADARLTEGKIMERRKKIALELSELVVYCRPVPFDEEKIGTERACYRDMSSFPETKAEKYVNKAKGKKFLQYNRLQLSRIYPKGQRLDSSNYDPLPMWICGSQLVALNFQTPDKPMQMNQALFMTGRHCGYVLQPSTMRDEAFDPFDKSSLRGLEPCAISIEVLGARHLPKNGRGIVCPFVEIEVAGAEYDSTKQKTEFVVDNGLNPVWPAKPFHFQISNPEFAFLRFVVYEEDMFSDQNFLAQATFPVKGLKTGYRAVPLKNNYSEDLELASLLIKIDIFPAKENGDLSPFSGTSLRERGSDASGQLFHGRAREGSFESRYQQPFEDFRISQEHLADHFDSRERRAPRRTRVNGDNRL
modifications: biotin on some lysine residues (incorporated at random from biotin-Lys-tRNA)
In turn, B2 gave an Average ECL signal in assay [3] of 342 ECL signal. Further, the ECL signal is 239 ECL signal in assay [4], 2780 ECL signal in assay [5], 3390 ECL signal in assay [6] and 1550 ECL signal in assay [7].

B3: Shc1 (EST clone IMAGE 3907115), in vitro translated, biotin-labelled (protein, UniProt P29353-2 1-473, looked up)
chain: MNKLSGGGGRRTRVEGGQLGGEEWTRHGSFVNKPTRGWLHPNDKVMGPGVSYLVRYMGCVEVLQSMRALDFNTRTQVTREAISLVCEAVPGAKGATRRRKPCSRPLSSILGRSNLKFAGMPITLTVSTSSLNLMAADCKQIIANHHMQSISFASGGDPDTAEYVAYVAKDPVNQRACHILECPEGLAQDVISTIGQAFELRFKQYLRNPPKLVTPHDRMAGFDGSAWDEEEEEPPDHQYYNDFPGKEPPLGGVVDMRLREGAAPGAARPTAPNAQTPSHLGATLPVGQPVGGDPEVRKQMPPPPPCPGRELFDDPSYVNVQNLDKARQAVGGAGPPNPAINGSAPRDLFDMKPFEDALRVPPPPQSVSMAEQLRGEPWFHGKLSRREAEALLQLNGDFLVRESTTTPGQYVLTGLQSGQPKHLLLVDPEGVVRTKDHRFESVSHLISYHMDNHLPIISAGSELCLQQPVERKL
modifications: biotin on some lysine residues (incorporated at random from biotin-Lys-tRNA)
For B3, the Average ECL signal in assay [3] was 342 ECL signal. Also, the ECL signal worked out at 260 ECL signal in assay [4], 318 ECL signal in assay [5], 26 ECL signal in assay [6] and 24 ECL signal in assay [7].
